From PMC10955041, “Reverse-engineering the anti-MUC1 antibody 139H2 by mass spectrometry–based de novo sequencing” (Life Science Alliance, 2024)

B1: hybridoma-derived 139H2 IgG (antibody, V domains shown)
VH: QVQLQQSGAELVKPGASVKLSCKASGYTFTNYYMYWVLQRPGQGLEWIGEINPSNGGTTFNEKFKNKATLTVDKSSSTAYMQLNSLTSEDSAVYYCTRSRYGNYVNYGMDYWGQGTSVTVSS
VL: DIVMSQSPSSLAVSVGEKVTMSCKSSQSLLYSNTQKNYLAWYQQKPGQSPKLLIYWASTRESGVPDRFTGSGSGTDFTLTISSVKAENLAVYYCQQYYRYPPTFGGGTKLELK
notes: as the heavy-chain variable domain of m1 (IGHV1-53); as the light-chain variable domain of m1 (IGKV8-30); mouse kappa light-chain constant region; Mouse IgG1, kappa; also called original hybridoma-derived 139H2; 139H2 WT; source: hybridoma culture supernatant (gift, NKI), purified (Protein G Sepharose); copies: 2 + 2
B2: recombinant 139H2 Fab fragment (Fab, V domains shown)
VH: QVQLQQSGAELVKPGASVKLSCKASGYTFTNYYMYWVLQRPGQGLEWIGEINPSNGGTTFNEKFKNKATLTVDKSSSTAYMQLNSLTSEDSAVYYCTRSRYGNYVNYGMDYWGQGTSVTVSS
VL: DIVMSQSPSSLAVSVGEKVTMSCKSSQSLLYSNTQKNYLAWYQQKPGQSPKLLIYWASTRESGVPDRFTGSGSGTDFTLTISSVKAENLAVYYCQQYYRYPPTFGGGTKLELK
notes: as the heavy-chain variable domain of m1 (IGHV1-53); mouse Ig gamma-1 (IGHG1) Fab constant region; as the light-chain variable domain of m1 (IGKV8-30); mouse kappa light-chain constant region, as in m1; also called monovalent Fab fragment; anti-MUC1 Fab; source: HEK293 cells (ImmunoPrecise Antibodies), culture supernatant, purified (HisTrap Excel, Superdex 200 SEC)
B3: recombinant (reverse-engineered) 139H2 IgG (antibody, V domains shown)
VH: QVQLQQSGAELVKPGASVKLSCKASGYTFTNYYMYWVLQRPGQGLEWIGEINPSNGGTTFNEKFKNKATLTVDKSSSTAYMQLNSLTSEDSAVYYCTRSRYGNYVNYGMDYWGQGTSVTVSS
VL: DIVMSQSPSSLAVSVGEKVTMSCKSSQSLLYSNTQKNYLAWYQQKPGQSPKLLIYWASTRESGVPDRFTGSGSGTDFTLTISSVKAENLAVYYCQQYYRYPPTFGGGTKLELK
notes: also in PDB 8P6I; standard mouse Ig gamma-1 (IGHG1) constant region, linker and Fc region, UniProt P01868.1; mouse kappa light-chain constant region (kappa light-chain backbone); Mouse IgG1, kappa; also called synthetic recombinant 139H2; recombinant 139H2; source: HEK293 cells (ImmunoPrecise Antibodies), culture supernatant, purified (HisTrap Excel); copies: 2 + 2

Molecular target: T1, full-length MUC1 glycoprotein of HT29-MTX cells (Homo sapiens, HT29-MTX cells, UniProt P15941, VNTR heavily O-linked glycosylated)
T1 construct: Mucin 1 (MUC1), endogenous in the human colon cancer cell line HT29-MTX; band at an estimated 600 kD; written here as one chain; also called Mucin 1; source: endogenous, HT29-MTX lysate (Western blot) and fixed, permeabilized HT29-MTX monolayers (immunofluorescence)
T1 sequence (P15941 24-1255): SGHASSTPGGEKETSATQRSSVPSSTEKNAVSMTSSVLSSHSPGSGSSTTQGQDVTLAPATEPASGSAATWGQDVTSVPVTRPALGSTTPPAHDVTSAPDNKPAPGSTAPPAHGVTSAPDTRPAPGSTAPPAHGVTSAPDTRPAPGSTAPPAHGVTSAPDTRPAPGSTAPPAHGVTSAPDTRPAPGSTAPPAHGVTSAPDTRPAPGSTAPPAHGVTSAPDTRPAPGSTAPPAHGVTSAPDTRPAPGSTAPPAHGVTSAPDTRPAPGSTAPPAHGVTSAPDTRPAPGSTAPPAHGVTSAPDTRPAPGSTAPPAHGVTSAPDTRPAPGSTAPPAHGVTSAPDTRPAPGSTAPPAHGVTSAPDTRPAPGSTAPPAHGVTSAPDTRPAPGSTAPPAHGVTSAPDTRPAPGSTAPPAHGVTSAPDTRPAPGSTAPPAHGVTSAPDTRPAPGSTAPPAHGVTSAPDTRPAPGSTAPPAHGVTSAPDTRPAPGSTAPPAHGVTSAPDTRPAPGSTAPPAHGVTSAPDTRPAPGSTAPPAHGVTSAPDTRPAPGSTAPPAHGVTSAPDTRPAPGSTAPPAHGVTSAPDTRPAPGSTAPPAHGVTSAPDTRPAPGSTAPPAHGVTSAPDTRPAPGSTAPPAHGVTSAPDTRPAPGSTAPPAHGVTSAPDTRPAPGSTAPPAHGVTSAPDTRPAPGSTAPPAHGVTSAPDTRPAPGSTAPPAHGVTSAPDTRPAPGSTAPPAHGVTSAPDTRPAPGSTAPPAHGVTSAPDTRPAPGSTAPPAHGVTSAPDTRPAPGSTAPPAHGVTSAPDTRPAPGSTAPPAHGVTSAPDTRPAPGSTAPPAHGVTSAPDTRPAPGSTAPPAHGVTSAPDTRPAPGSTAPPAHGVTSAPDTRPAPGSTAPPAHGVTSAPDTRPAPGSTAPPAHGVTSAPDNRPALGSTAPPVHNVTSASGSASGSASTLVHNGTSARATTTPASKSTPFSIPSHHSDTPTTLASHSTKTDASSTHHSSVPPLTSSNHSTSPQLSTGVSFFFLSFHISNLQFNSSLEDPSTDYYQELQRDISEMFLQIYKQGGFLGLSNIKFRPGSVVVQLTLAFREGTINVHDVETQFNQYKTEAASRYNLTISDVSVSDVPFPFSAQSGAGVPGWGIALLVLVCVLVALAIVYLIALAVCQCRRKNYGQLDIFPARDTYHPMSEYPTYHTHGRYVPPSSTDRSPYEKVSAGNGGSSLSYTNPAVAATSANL
Assay: far-Western, overlay or dot blot; immunoblot of SDS lysates of HT29-MTX and HT29-MTX ΔMUC1 cells on a mucin-SDS gel, PVDF; 139H2 antibodies 1:1,000 in TSMT with 1% BSA, 1 h at RT; detected with anti-mouse IgG
Conditions: one partner purified

Binder	binding result
B1	binds
B2	binds
B3	binds
